The results in this text go back to paper PMC8809517, “Cofactor-independent RNA editing by a synthetic S-type PPR protein”.

Where a chain is given by its changes, count along the chain named.

What all share (test): high-throughput RNA pulldown from lysate on Ni-NTA beads; HRP: 50 mM Tris pH 8, 150 mM NaCl, 1 mM beta-mercaptoethanol, 50 ug/ml BSA, 3 ug/ml yeast RNA, 0.5% heparin; ITC and FP: Tris pH 8, 200 mM KCl, 5% glycerol; MST: 50 mM Tris pH 8, 200 mM NaCl, 1 mM DTT, BSA, heparin, 0.05% Tween 20
Details in all cases: tags: N-terminal His-eGFP

Series [1] deals with T1, GFP-9S library array, motif 4 ND N98Q;D124G (synthetic construct, N98Q;D124G).
T1 chain: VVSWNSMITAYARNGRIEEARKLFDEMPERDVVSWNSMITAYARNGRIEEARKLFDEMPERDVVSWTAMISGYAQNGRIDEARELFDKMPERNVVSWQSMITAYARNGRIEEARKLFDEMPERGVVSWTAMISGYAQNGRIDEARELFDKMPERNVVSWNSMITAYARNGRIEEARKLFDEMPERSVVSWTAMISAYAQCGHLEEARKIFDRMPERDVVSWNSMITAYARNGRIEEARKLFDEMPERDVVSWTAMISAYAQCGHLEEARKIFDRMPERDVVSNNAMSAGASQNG

Series [2] addresses T2, GFP-9S library array, motif 4 ND N98V;D124A (synthetic construct, N98V;D124A).
T2 chain: T1 chain with Q98V, G124A

Series [3] has as its target T3, GFP-9S library array, motif 4 ND N98A;D124R (synthetic construct, N98A;D124R).
T3 chain: T1 chain with Q98A, G124R

Series [4] has as its target T4, GFP-9S library array, motif 4 ND N98K;D124Y (synthetic construct, N98K;D124Y).
T4 chain: T1 chain with Q98K, G124Y

Series [5] has as its target T5, GFP-9S library array, motif 4 ND N98G;D124S (synthetic construct, N98G;D124S).
T5 chain: T1 chain with Q98G, G124S

The Kd is the equilibrium constant for the complex coming apart. A higher Kd goes with weaker binding.

Consider AUUAAACGUGA (ssRNA) [IR-rpoA-A], for which the Kd in series [1] (label: 5' IRDye 800CW) came to 373 nM; in series [2] (label: 5' IRDye 800CW) it was 80.7 nM; in series [3] (label: 5' IRDye 800CW), 254 nM; in series [4] (label: 5' IRDye 800CW), 115 nM; in series [5] (label: 5' IRDye 800CW), 564 nM.
For the molecule AUUAUACGUGA (ssRNA) [IR-rpoA-U], the Kd was 321 nM in series [1] (label: 5' IRDye 800CW); 71.8 nM in series [2] (label: 5' IRDye 800CW); 160 nM in series [3] (label: 5' IRDye 800CW); 128 nM in series [4] (label: 5' IRDye 800CW); 749 nM in series [5] (label: 5' IRDye 800CW).
For AUUACACGUGA (ssRNA) [Cy5-rpoA], the Kd in series [1] (label: 5' Cy5) amounted to 154 nM; in series [2] (label: 5' Cy5), 64.4 nM; in series [3] (label: 5' Cy5) it was 178 nM; in series [4] (label: 5' Cy5), 62.5 nM; in series [5] (label: 5' Cy5), 629 nM.
In the case of AUUAGACGUGA (ssRNA) [Cy5-rpoA-G], the Kd turned out to be 166 nM in series [1] (label: 5' Cy5); 74.1 nM in series [2] (label: 5' Cy5); 166 nM in series [3] (label: 5' Cy5); 49.3 nM in series [4] (label: 5' Cy5); 549 nM in series [5] (label: 5' Cy5).
